The target of one experiment is HLA-A*02:03. Kind of experiment: IEDB peptide-MHC binding, purified MHC/competitive/radioactivity; filed as Kd, often an IC50 or EC50 that approximates it; ≥ and ≤ were set here for values at or beyond the usual limits of such assays.
For the next experiment, the target named is HLA-A*02:06. The experiment is described as above.
In the next experiment the target is HLA-A*02:02. Described as above.
In a further experiment the target is HLA-A*01:01. Kind of experiment: IEDB peptide-MHC binding, purified MHC/direct/fluorescence; filed as Kd, often an IC50 or EC50 that approximates it; ≥ and ≤ were set here for values at or beyond the usual limits of such assays. The settings on record: source organism: Human immunodeficiency virus 1.
Another experiment deals with HLA-B*58:01. The description is as above.
Another experiment concerns the target HLA-B*15:01. The description is as above. The settings on record: source organism: Human immunodeficiency virus 1.
A further experiment concerns the target HLA-A*32:01. Kind of experiment: IEDB peptide-MHC binding, purified MHC/competitive/radioactivity; filed as Kd, often an IC50 or EC50 that approximates it; ≥ and ≤ were set here for values at or beyond the usual limits of such assays.
For a further experiment, the target named is HLA-B*40:01. Kind of experiment: IEDB peptide-MHC binding, purified MHC/direct/fluorescence; filed as Kd, often an IC50 or EC50 that approximates it; ≥ and ≤ were set here for values at or beyond the usual limits of such assays.
The target of the next experiment is HLA-A*11:01. Described as above.
Another experiment has as its target HLA-A*26:01. Kind of experiment: IEDB peptide-MHC binding, purified MHC/competitive/radioactivity; filed as Kd, often an IC50 or EC50 that approximates it; ≥ and ≤ were set here for values at or beyond the usual limits of such assays.
Another experiment deals with HLA-A*69:01. Kind of experiment: IEDB peptide-MHC binding, purified MHC/direct/fluorescence; filed as Kd, often an IC50 or EC50 that approximates it; ≥ and ≤ were set here for values at or beyond the usual limits of such assays.
The target in the next experiment is HLA-B*07:02. The description is as above. The settings on record: source organism: Human herpesvirus 4 strain B95-8.
[1] abbreviates: source organism: Vaccinia virus WR.
Setting [2] is: source organism: Dengue virus 2 Jamaica/1409/1983.
Setting [3] is: source organism: Mammarenavirus juninense.
[4] abbreviates: source organism: Lymphocytic choriomeningitis virus (strain Armstrong).
Where [5] appears, read: source organism: SARS coronavirus Tor2.

Bounds are passed on as bounds.

NMKPNFWSRI: the Kd with HLA-A*02:03 (setting [1]) was 193 nM; with HLA-A*02:06 (setting [1]), 13900 nM; in the experiment with HLA-A*02:02 (setting [1]), 1680 nM.
As for NSSKVSQNY, the Kd in the experiment with HLA-A*01:01 is 41.2 nM; with HLA-B*58:01 (source organism: Human immunodeficiency virus 1) it was 742 nM; with HLA-B*15:01, 301 nM.
Take NYADRRWCFD: the Kd with HLA-A*32:01 (setting [2]) was no less than 52300 nM.
PIPMSRLFM: the dissociation constant Kd in the experiment with HLA-A*02:03 (setting [1]) was 9130 nM; in the experiment with HLA-A*02:06 (setting [1]), no less than 31200 nM; in the experiment with HLA-A*02:02 (setting [1]) it was 3890 nM.
For PLTGNNTITT, the Kd was no less than 29500 nM in the experiment with HLA-A*02:03 (setting [1]), no less than 69800 nM with HLA-A*02:06 (setting [1]) and 7670 nM with HLA-A*02:02 (setting [1]).
As for PVIVPDIKL, the Kd in the experiment with HLA-A*02:03 (setting [1]) was no less than 32700 nM; in the experiment with HLA-A*02:06 (setting [1]) it was no less than 51200 nM; in the experiment with HLA-A*02:02 (setting [1]), no less than 41200 nM.
In the experiment with HLA-B*40:01 (setting [3]), QEHDCLQIV registered a Kd of 1470 nM.
On to RTIYNETSI, for which the Kd with HLA-A*32:01 (setting [1]) came to 1.03 nM.
With RTMFLFVFR, the Kd with HLA-A*11:01 (source organism: Mycobacterium tuberculosis) worked out at 94.6 nM.
Regarding RTRCKYVGCT, the results for the Kd with HLA-A*02:03 (setting [1]), with HLA-A*02:06 (setting [1]) and in the experiment with HLA-A*02:02 (setting [1]) were 12300 nM, 11600 nM and 149 nM, respectively.
With RVKQWVMDT, the Kd was 3.61 nM with HLA-A*02:03 (setting [1]), 13500 nM with HLA-A*02:06 (setting [1]) and 3630 nM with HLA-A*02:02 (setting [1]).
Take SALNHTKKW: the values for the Kd in the experiment with HLA-A*11:01 (source organism: SARS-CoV1) and with HLA-B*58:01 (source organism: SARS-CoV1) were 17100 nM and 350 nM, respectively.
Consider SAVPTEWFPT, for which the dissociation constant (Kd) with HLA-A*32:01 (source organism: Dengue virus 4 Philippines/H241/1956) was no less than 34000 nM.
In the case of SIDHCSSFI, the results for the Kd with HLA-A*02:03 (setting [1]), with HLA-A*02:06 (setting [1]) and with HLA-A*02:02 (setting [1]) were 12.9 nM, 199 nM and 631 nM, respectively.
SLALKNSQA: the dissociation constant Kd with HLA-A*02:03 (setting [1]) worked out at 459 nM; with HLA-A*02:06 (setting [1]), 19000 nM; with HLA-A*02:02 (setting [1]) it was 662 nM.
Taken in the same sequence, the figures for SMMVILPDKI were 19.2 nM, 5.67 nM and 28.3 nM.
Consider SMSQELAELL, for which the Kd was 54.5 nM in the experiment with HLA-A*02:03 (setting [1]), 474 nM with HLA-A*02:06 (setting [1]) and 6.19 nM with HLA-A*02:02 (setting [1]).
As to SQSTIPETI, in the experiment with HLA-A*32:01 (setting [2]), the equilibrium dissociation constant (Kd) is no less than 24100 nM.
For the sequence STTRGALIF, the Kd in the experiment with HLA-A*32:01 (setting [1]) amounted to 296 nM.
On to STVDVRNIVT, for which the results for the Kd with HLA-A*02:03 (setting [1]), with HLA-A*02:06 (setting [1]) and in the experiment with HLA-A*02:02 (setting [1]) were 11600 nM, 1570 nM and 3060 nM, respectively.
Take SVDAMIHKT: the Kd turned out to be 3660 nM with HLA-A*02:03 (setting [1]), 10600 nM in the experiment with HLA-A*02:06 (setting [1]) and 5020 nM in the experiment with HLA-A*02:02 (setting [1]).
On to SVVETLEQM, for which the Kd in the experiment with HLA-A*26:01 (source organism: Dengue virus 1 Brazil/97-11/1997) is 138 nM.
As for TIDNIVTSL, the Kd in the experiment with HLA-A*02:03 (setting [1]) is 1040 nM; with HLA-A*02:06 (setting [1]), 2730 nM; with HLA-A*02:02 (setting [1]), 178 nM.
As for TIEDDKIVTM, the Kd in the experiment with HLA-A*02:03 (setting [1]) is 17200 nM; in the experiment with HLA-A*02:06 (setting [1]), no less than 26100 nM; in the experiment with HLA-A*02:02 (setting [1]) it was 17000 nM.
In the experiment with HLA-A*69:01 (source organism: West Nile virus), TLARGFPFV registered a Kd of no more than 1 nM.
On to TTTGEIGAI, for which the Kd with HLA-A*26:01 (source organism: Dengue virus 3 Martinique/1243/1999) was determined as 5260 nM.
In the experiment with HLA-B*40:01 (source organism: Influenza A virus (A/Moscow/346/2003(H3N2))), VETPIRNEW returned a Kd of no less than 20000 nM.
In the case of VLQQNNSFI, the equilibrium dissociation constant (Kd) with HLA-A*02:03 (setting [1]) was found to be 249 nM; in the experiment with HLA-A*02:06 (setting [1]) it was 8680 nM; with HLA-A*02:02 (setting [1]), 100 nM.
VMCSISLTY: the Kd in the experiment with HLA-A*32:01 (setting [1]) was found to be 10.8 nM.
For the sequence VPAPAGPIV, the Kd in the experiment with HLA-A*69:01 (source organism: Human herpesvirus 4 strain B95-8) was 442 nM; in the experiment with HLA-B*07:02, 23.4 nM.
In the case of VTLNISSKF, the Kd with HLA-A*32:01 (setting [1]) was determined as 10.6 nM.
Regarding VTNVIIIVI, the Kd with HLA-A*32:01 (setting [1]) is 13.7 nM.
Consider YCNYSKFWYL, for which the values for the Kd with HLA-A*02:03 (setting [4]), with HLA-A*02:06 (setting [4]) and in the experiment with HLA-A*02:02 (setting [4]) were 9630 nM, 1060 nM and 1110 nM, respectively.
In the case of YCNYTKFWYV, the Kd worked out at 101 nM in the experiment with HLA-A*02:03 (setting [3]), 6.54 nM with HLA-A*02:06 (setting [3]) and 322 nM with HLA-A*02:02 (setting [3]).
YIMYNILPI: the Kd with HLA-A*32:01 (setting [1]) came out at 39.4 nM.
The same measure, in the same setting: the result for YLFSQNYSF reads 1.39 nM.
In the case of YLLGLSAIM, the Kd with HLA-A*02:03 (setting [5]) turned out to be 37.1 nM; in the experiment with HLA-A*02:06 (setting [5]) it was 3.22 nM; with HLA-A*02:02 (setting [5]) it was 1.69 nM.
On to YLSKEDRII, for which the figures for the Kd in the experiment with HLA-A*02:03 (setting [1]), with HLA-A*02:06 (setting [1]) and in the experiment with HLA-A*02:02 (setting [1]) were 435 nM, 10500 nM and 305 nM, respectively.
With YQSFLFWFL, the Kd turned out to be 2.5 nM in the experiment with HLA-A*02:03 (setting [1]), 40.1 nM with HLA-A*02:06 (setting [1]) and 0.381 nM with HLA-A*02:02 (setting [1]).

(Values after the Immune Epitope Database (IEDB).)
